The source of these data is paper PMC5701058, “Structure of Rap1b bound to talin reveals a pathway for triggering integrin activation” (Nature Communications, 2017).

Sequences and labels used below:
B3: membrane-anchored Rap1b_TM2 (G12V, C51S, C118S, C141S), loaded with GMP-PNP (natural protein, human, UniProt P61224 1-184, looked up)
chain: MREYKLVVLGSVGVGKSALTVQFVQGIFVEKYDPTIEDSYRKQVEVDAQQSMLEILDTAGTEQFTAMRDLYMKNGQGFALVYSITAQSTFNDLQDLREQILRVKDTDDVPMILVGNKSDLEDERVVGKEQGQNLARQWNNSAFLESSAKSKINVNEIFYDLVRQINRKTPVPGKARKKSSCQLL
modifications: thiol group of Cys 180 joined to the maleimide group of the lipid PE MCC in vesicles
notes: Rap1b, human, with G12V, C51S, C118S, C141S; holds the C-terminal Cys 180 (so in the source); LUVs: 96% POPC, 1% PIP2, 3% PE MCC; MLVs: 87% POPC, 10% PIP2, 3% PE MCC; also called LUV-Rap1b; LUV-Rap1b (GMP-PNP); source: E. coli BL21 (DE3), purified, then tethered to vesicles (LUVs or MLVs) by thiol-maleimide crosslinking
B7: mouse talin-H (1–429) (domain or fragment, UniProt P26039 1-429, looked up)
chain: MVALSLKISIGNVVKTMQFEPSTMVYDACRMIRERIPEALAGPPNDFGLFLSDDDPKKGIWLEAGKALDYYMLRNGDTMEYRKKQRPLKIRMLDGTVKTIMVDDSKTVTDMLMTICARIGITNHDEYSLVRELMEEKKDEGTGTLRKDKTLLRDEKKMEKLKQKLHTDDELNWLDHGRTLREQGVEEHETLLLRRKFFYSDQNVDSRDPVQLNLLYVQARDDILNGSHPVSFDKACEFAGFQCQIQFGPHNEQKHKAGFLDLKDFLPKEYVKQKGERKIFQAHKNCGQMSEIEAKVRYVKLARSLKTYGVSFFLVKEKMKGKNKLVPRLLGITKECVMRVDEKTKEVIQEWSLTNIKRWAASPKSFTLDFGDYQDGYYSVQTTEGEQIAQLIAGYIDIILKKKKSKDHFGLEGDEESTMLEDSVSPKKS
notes: talin (talin-1), mouse, head domain, residues 1-429; Talin-H was cloned into pET28t and into pGST-1; also called talin head domain

Assay [1] has as its target membrane-anchored Rap1b_TM2 (G12V, C51S, C118S, C141S), loaded with GMP-PNP (human) (UniProt P61224). In words: co-sedimentation; vesicle co-sedimentation: 10 μM talin-H or full-length talin with 10 μM MLV-Rap1b, MLV only or MLV + Rap1b; RT 15 min, 22,000 r.p.m. 35 min; pellet on SDS-PAGE, band normalized to MLV only.
Assay [2] deals with T1, mouse RIAM-RAPH (149–438) (mouse, UniProt Q8R5A3 149-438).
T1 construct: RIAM, mouse, RA-PH domains, residues 149-438
T1 sequence (looked up): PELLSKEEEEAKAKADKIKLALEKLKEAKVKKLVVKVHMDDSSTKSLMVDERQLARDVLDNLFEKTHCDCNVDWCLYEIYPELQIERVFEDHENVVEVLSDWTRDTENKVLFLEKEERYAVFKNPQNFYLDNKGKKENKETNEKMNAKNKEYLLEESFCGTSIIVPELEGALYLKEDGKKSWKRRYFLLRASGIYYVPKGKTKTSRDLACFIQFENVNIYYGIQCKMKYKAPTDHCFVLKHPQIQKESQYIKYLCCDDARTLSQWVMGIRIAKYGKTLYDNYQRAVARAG
In words: MST; 100 nM GFP-Rap1b (G12V) with serial dilutions of the partner; 50 mM Tris-HCl pH 7.5, 100 mM NaCl, 5 mM MgCl2, 2 mM DTT, 0.05% Tween 20; RT. Conditions: both partners purified.

Assay [3] deals with B7. In words: pull-down; GST pull-down of Fig. 3b, Rap1b with GDP or GTP analog; ~25 μg GST-fused protein on glutathione-Sepharose 4B, 4 °C, 25 mM Tris-HCl pH 7.5, 150 mM NaCl, 5 mM MgCl2, 1 mM DTT, 0.01% NP-40. Conditions: both partners purified.
For assay [4], the target named is T2, mouse full-length talin (mouse, UniProt P26039 1-2541).
T2 construct: talin (talin-1), mouse, full length, in pET28t
Described as above. Conditions: both partners purified.

The target in assay [5] is B7. Briefly: ITC; 200 μM talin-H in the syringe into 15 μM LUV-Rap1b (GMP-PNP) in the cell; 25 °C; 25 mM NaH2PO4/Na2HPO4 pH 6.8, 100 mM NaCl, 5 mM MgCl2; single-site model. Conditions: both partners purified. A general note: ITC needs no label: the signal is the heat of the interaction.
Assay [6] deals with T3, GFP-Rap1b (G12V), loaded with GMP-PNP (human, UniProt P61224 1-184, G12V). Briefly: MST; GMP-PNP loaded.
For assay [7], the target named is T4, Rap1b (G12V), loaded with GMP-PNP (active form) (human, UniProt P61224 1-184, G12V).
T4 construct: Rap1b, human, with G12V; Loaded with the GTP analog GMP-PNP; Made by mutagenesis; Probably full length; also called active Rap1b; GMP-PNP loaded Rap1b
T4 sequence (looked up): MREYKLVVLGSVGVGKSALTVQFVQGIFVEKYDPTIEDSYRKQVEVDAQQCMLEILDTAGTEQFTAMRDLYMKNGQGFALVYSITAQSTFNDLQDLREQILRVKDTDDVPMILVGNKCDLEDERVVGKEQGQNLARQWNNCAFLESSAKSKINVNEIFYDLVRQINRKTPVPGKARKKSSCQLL
In words: NMR titration; HSQC titration of 45 μM 15N-labeled talin-F0 with increasing GMP-PNP-loaded Rap1b (G12V); average Kd of four residues. Particulars: both partners purified.

The target in assay [8] is B7. In words: NMR titration; 2D HSQC of 45 μM GMP-PNP loaded 15N-labeled Rap1b (1–167) without and with 90 or 225 μM talin-F0, 90 μM talin-H or 45 μM full-length talin; 25 °C; 25 mM NaH2PO4/Na2HPO4 pH 6.8, 150 mM NaCl, 5 mM MgCl2, 2 mM DTT. Conditions: both partners purified.
The target of assay [9] is T2, mouse full-length talin. The assay is described as above. Particulars: both partners purified.
The target of assay [10] is membrane-anchored Rap1b_TM2 (G12V, C51S, C118S, C141S), loaded with GMP-PNP (human, UniProt P61224 1-184, G12V | C51S | C118S | C141S, thiol group of Cys 180 joined to the maleimide group of the lipid PE MCC in vesicles). In words: ITC; LUV-anchored Rap1b, GMP-PNP; 2nd experiment.
Assay [11] concerns the target T3, GFP-Rap1b (G12V), loaded with GMP-PNP. Briefly: MST; GMP-PNP loaded; estimated, saturation not reached.
The target of assay [12] is B3. Briefly: co-sedimentation; vesicle co-sedimentation: 10 μM talin-H or full-length talin with 10 μM MLV-Rap1b, MLV only or MLV + Rap1b; RT 15 min, 22,000 r.p.m. 35 min; pellet on SDS-PAGE, band normalized to MLV only. Conditions: both partners purified.

For mouse full-length talin, P26039 1-2541, the fold co-sedimentation with vesicles, Rap1b anchored against MLV only in [1] came to 3 fold.

B1: GFP-Rap1b (G12V), loaded with GMP-PNP (natural protein, human, UniProt P61224 1-184, looked up)
chain: MREYKLVVLGSVGVGKSALTVQFVQGIFVEKYDPTIEDSYRKQVEVDAQQCMLEILDTAGTEQFTAMRDLYMKNGQGFALVYSITAQSTFNDLQDLREQILRVKDTDDVPMILVGNKCDLEDERVVGKEQGQNLARQWNNCAFLESSAKSKINVNEIFYDLVRQINRKTPVPGKARKKSSCQLL
notes: Rap1b (G12V) in a pRSET vector; The name puts GFP first, the methods call it a C-terminal GFP fusion tag; also called GMP-PNP-loaded GFP-Rap1b (G12V); not shown: GFP, C-terminal, kept
On to B1, for which, in assay [2], the binding result is reported as “binds”.

B2: Rap1b (G12V), GMP-PNP loaded, of the GST pull-down of Fig. 3b (natural protein, human, UniProt P61224 1-184, looked up)
chain: MREYKLVVLGSVGVGKSALTVQFVQGIFVEKYDPTIEDSYRKQVEVDAQQCMLEILDTAGTEQFTAMRDLYMKNGQGFALVYSITAQSTFNDLQDLREQILRVKDTDDVPMILVGNKCDLEDERVVGKEQGQNLARQWNNCAFLESSAKSKINVNEIFYDLVRQINRKTPVPGKARKKSSCQLL
notes: human full-length Rap1b in a pGST-1 vector, with G12V as the active form; also called active Rap1b
Turning to B2, the binding result with mouse talin-H (1–429) [3] and with mouse full-length talin [4] was “binds” throughout. As to B3, in the assay with mouse talin-H (1–429) [5], the Kd is ~1.52 µM.

B4: mouse talin-F0 (1–86) (domain or fragment, UniProt P26039 1-86, looked up)
chain: MVALSLKISIGNVVKTMQFEPSTMVYDACRMIRERIPEALAGPPNDFGLFLSDDDPKKGIWLEAGKALDYYMLRNGDTMEYRKKQR
notes: talin (talin-1), mouse, F0 domain, residues 1-86; Isotope labelled or unlabelled as the NMR sample needed; also called F0 domain of talin
On to B4, for which the figures for the Kd in assay [6] and in assay [7] were 237 µM and ~162 µM, respectively.

B5: C-terminal truncated Rap1b (1–167, G12V), loaded with GMP-PNP (domain or fragment, human, UniProt P61224 1-167, looked up)
chain: MREYKLVVLGSVGVGKSALTVQFVQGIFVEKYDPTIEDSYRKQVEVDAQQCMLEILDTAGTEQFTAMRDLYMKNGQGFALVYSITAQSTFNDLQDLREQILRVKDTDDVPMILVGNKCDLEDERVVGKEQGQNLARQWNNCAFLESSAKSKINVNEIFYDLVRQINR
notes: Rap1b, human, residues 1-167, G12V, in pET28t; Loaded with GMP-PNP; isotope labelled or unlabelled as the NMR sample needed; The removal of the tag is told for the assignment samples; not shown: His6, N-terminal, cleaved
Turning to B5, the binding result with mouse talin-H (1–429) [8] and with mouse full-length talin [9] was “binds” in each case.

B6: mouse RIAM-RAPH (149–438) (domain or fragment)
chain: PELLSKEEEEAKAKADKIKLALEKLKEAKVKKLVVKVHMDDSSTKSLMVDERQLARDVLDNLFEKTHCDCNVDWCLYEIYPELQIERVFEDHENVVEVLSDWTRDTENKVLFLEKEERYAVFKNPQNFYLDNKGKKENKETNEKMNAKNKEYLLEESFCGTSIIVPELEGALYLKEDGKKSWKRRYFLLRASGIYYVPKGKTKTSRDLACFIQFENVNIYYGIQCKMKYKAPTDHCFVLKHPQIQKESQYIKYLCCDDARTLSQWVMGIRIAKYGKTLYDNYQRAVARAG
As to B6, in assay [6], the Kd was 5.3 µM. With B7, the Kd in assay [10] is 3.64 µM; in assay [11], ~147 µM. The “fold co-sedimentation with vesicles, Rap1b anchored against MLV only” value in assay [12] is ~1.5 fold.

One may read the Kd as the concentration at which binding is half-saturated.
